Assay [1] has as its target T1, C-terminally His-tagged soluble RECK (sRECK-His) (human, UniProt O95980 23-942).
T1 sequence (looked up): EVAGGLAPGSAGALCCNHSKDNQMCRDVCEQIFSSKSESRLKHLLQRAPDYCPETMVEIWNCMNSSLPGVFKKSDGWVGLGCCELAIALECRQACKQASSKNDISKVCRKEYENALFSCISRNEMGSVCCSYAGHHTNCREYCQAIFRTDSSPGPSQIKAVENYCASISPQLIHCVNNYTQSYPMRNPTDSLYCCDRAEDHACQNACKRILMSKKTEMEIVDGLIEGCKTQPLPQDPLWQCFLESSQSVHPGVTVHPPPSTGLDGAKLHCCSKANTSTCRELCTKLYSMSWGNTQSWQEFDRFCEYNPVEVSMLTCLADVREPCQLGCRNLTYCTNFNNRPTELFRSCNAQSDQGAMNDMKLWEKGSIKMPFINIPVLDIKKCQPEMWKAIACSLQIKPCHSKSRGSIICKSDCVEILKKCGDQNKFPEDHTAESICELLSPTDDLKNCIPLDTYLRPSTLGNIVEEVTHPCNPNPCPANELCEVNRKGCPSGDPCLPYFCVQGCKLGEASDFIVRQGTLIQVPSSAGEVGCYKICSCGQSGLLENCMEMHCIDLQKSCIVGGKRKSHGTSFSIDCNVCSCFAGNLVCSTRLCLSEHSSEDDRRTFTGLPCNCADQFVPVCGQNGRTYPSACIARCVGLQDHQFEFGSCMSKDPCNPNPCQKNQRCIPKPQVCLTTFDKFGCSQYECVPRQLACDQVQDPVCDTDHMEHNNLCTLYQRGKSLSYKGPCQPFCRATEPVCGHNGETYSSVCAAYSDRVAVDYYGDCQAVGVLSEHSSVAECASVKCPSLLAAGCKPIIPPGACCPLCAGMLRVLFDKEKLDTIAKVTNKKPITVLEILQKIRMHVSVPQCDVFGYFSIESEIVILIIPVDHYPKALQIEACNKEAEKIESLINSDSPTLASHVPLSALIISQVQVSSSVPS
In words: cross-linking.

Assay [2] deals with T2, recombinant soluble (ΔGPI) Fc-tagged RECK (sRECK-Fc) (human, UniProt O95980 23-942).
T2 sequence (looked up): T1 sequence (looked up)
Kind of assay: pull-down.

The target in assay [3] is T2, recombinant soluble (ΔGPI) Fc-tagged …. Kind of assay: pull-down. This is another data set of the same source.

Like-named read-outs stand apart in the source and are kept apart here.

What is called stoichiometry N is the number of molecules, sites or subunits per partner or assembly.

B1: WNT7A (co-expressed with sRECK-His in Expi293F cells) (ligand, human, UniProt O00755 32-349, looked up)
chain: LGASIICNKIPGLAPRQRAICQSRPDAIIVIGEGSQMGLDECQFQFRNGRWNCSALGERTVFGKELKVGSREAAFTYAIIAAGVAHAITAACTQGNLSDCGCDKEKQGQYHRDEGWKWGGCSADIRYGIGFAKVFVDAREIKQNARTLMNLHNNEAGRKILEENMKLECKCHGVSGSCTTKTCWTTLPQFRELGYVLKDKYNEAVHVEPVRASRNKRPTFLKIKKPLSYRKPMDTDLVYIEKSPNYCEEDPVTGSVGTQGRACNKTAPQASGCDLMCCGRGYNTHQYARVWQCNCKFHWCCYVKCNTCSERTEMYTCK
For B1, the “stoichiometry N” value in assay [1] was 1.

B2: recombinant soluble GPR124 ECD (sGPR124), C-terminally His-tagged (domain or fragment)
chain: APGCPLSIRSCKCSGERPKGLSGGVPGPARRRVVCSGGDLPEPPEPGLLPNGTVTLLLSNNKITGLRNGSFLGLSLLEKLDLRNNIISTVQPGAFLGLGELKRLDLSNNRIGCLTSETFQGLPRLLRLNISGNIFSSLQPGVFDELPALKVVDLGTEFLTCDCHLRWLLPWAQNRSLQLSEHTLCAYPSALHAQALGSLQEAQLCCEGALELHTHHLIPSLRQVVFQGDRLPFQCSASYLGNDTRIRWYHNRAPVEGDEQAGILLAESLIHDCTFITSELTLSHIGVWASGEWECTVSMAQGNASKKVEIVVLETSASYCPAERVANNRGDFRWPRTLAGITAYQSCLQYPFTSVPLGGGAPGTRASRRCDRAGRWEPGDYSHCLYTNDITRVLYTFVLMPINASNALTLAHQLRVYTAEAASFSDMMDVVYVAQMIQKFLGYVDQIKELVEVMVDMASNLMLVDEHLLWLAQREDKACSRIVGALERIGGAALSPHAQHISVNARNVALEAYLIKPHSYVGLTCTAFQRREGGVPGTRPGSPGQNPPPEPEPPADQQLRFRCTTGRPNVSLSSFHIKNSVALASIQLPPSLFSSLPAALAPPVPPDCTLQLLVFRNGRLFHSHSNTSRPGAAGPGKRRGVATPVIFAGTSGCGVGNLTEPVAVSLRHWAEGAEPVAAWWSQEGPGEAGGWTSEGCQLRSSQPNVSALHCQHLGNVAVLMELDGGGS
With B2, the binding result in assay [2] is reported as “binds”.

B3: sGPR124 ΔHRM (Δaa 349 - 426) (domain or fragment, human)
chain: APGCPLSIRSCKCSGERPKGLSGGVPGPARRRVVCSGGDLPEPPEPGLLPNGTVTLLLSNNKITGLRNGSFLGLSLLEKLDLRNNIISTVQPGAFLGLGELKRLDLSNNRIGCLTSETFQGLPRLLRLNISGNIFSSLQPGVFDELPALKVVDLGTEFLTCDCHLRWLLPWAQNRSLQLSEHTLCAYPSALHAQALGSLQEAQLCCEGALELHTHHLIPSLRQVVFQGDRLPFQCSASYLGNDTRIRWYHNRAPVEGDEQAGILLAESLIHDCTFITSELTLSHIGVWASGEWECTVSMAQGNASKKVEIVVLETLYTFVLMPINASNALTLAHQLRVYTAEAASFSDMMDVVYVAQMIQKFLGYVDQIKELVEVMVDMASNLMLVDEHLLWLAQREDKACSRIVGALERIGGAALSPHAQHISVNARNVALEAYLIKPHSYVGLTCTAFQRREGGVPGTRPGSPGQNPPPEPEPPADQQLRFRCTTGRPNVSLSSFHIKNSVALASIQLPPSLFSSLPAALAPPVPPDCTLQLLVFRNGRLFHSHSNTSRPGAAGPGKRRGVATPVIFAGTSGCGVGNLTEPVAVSLRHWAEGAEPVAAWWSQEGPGEAGGWTSEGCQLRSSQPNVSALHCQHLGNVAVLMELDGGGS
Take B3: in assay [3], the binding result is “binds”.

Source of the values: paper PMC6338448 (Cell reports, 2018).
